Experimental data published in the Immune Epitope Database (IEDB).

Assays:
HLA-B*15:42 = assay: IEDB peptide-MHC binding, purified MHC/competitive/fluorescence; filed as Kd, often an IC50 or EC50 that approximates it; ≥ and ≤ were set here for values at or beyond the usual limits of such assays; settings: source organism: Burkholderia mallei SAVP1
HLA-B*45:06 = assay: as above; settings: source organism: Burkholderia mallei SAVP1
HLA-B*83:01 = assay: as above; settings: source organism: Burkholderia mallei SAVP1
HLA-B*27:20 = assay: as above; settings: source organism: Burkholderia mallei SAVP1
HLA-B*08:02 = assay: IEDB peptide-MHC binding, purified MHC/direct/fluorescence; filed as Kd, often an IC50 or EC50 that approximates it; ≥ and ≤ were set here for values at or beyond the usual limits of such assays; settings: source organism: Burkholderia mallei ATCC 23344
HLA-C*07:02 = assay: as above; settings: source organism: Burkholderia mallei SAVP1
HLA-C*05:01 = assay: as above; settings: source organism: Burkholderia mallei SAVP1
HLA-C*15:02 = assay: as above; settings: source organism: Burkholderia mallei SAVP1
HLA-B*08:01 = assay: as above; settings: source organism: Burkholderia mallei ATCC 23344
HLA-C*06:02 = assay: as above; settings: source organism: Burkholderia mallei SAVP1
HLA-C*14:02 = assay: as above; settings: source organism: Burkholderia mallei SAVP1

## YARRYFYPL
HLA-B*15:42
  Kd: ≥ 5000 nM
HLA-B*45:06
  Kd: ≥ 5000 nM
HLA-B*83:01
  Kd: ≥ 5000 nM
HLA-B*27:20
  Kd: 24.4 nM
HLA-B*08:02
  Kd: 43 nM
HLA-C*07:02
  Kd: 362 nM
HLA-C*05:01
  Kd: ≥ 20000 nM
HLA-C*15:02
  Kd: 11 nM
HLA-B*08:01
  Kd: 2 nM
HLA-C*06:02
  Kd: ≥ 20000 nM
HLA-C*14:02
  Kd: 696 nM
